This data set can be described thus: soluble on expression in E. coli; label from the status in PepcDB or PDB records.
Take “SMFEIKKICCIGAGYVGGPTCSVIAHMCPEIRVTVVDVNESRINAWNSPTLPIYEPGLKEVVESCRGKNLFFSTNIDDAIKEADLVFISVNTPTKTYGMGKGRAADLKYIEACARRIVQNSNGYKIVTEKSAVPVRAAESIRRIFDANTKPNLNLQVLSNPEFLAEGTAIKDLKNPDRVLIGGDETPEGQRAVQALCAVYEHWVPREKILTTNTWSSELSKLAANAFLAQRISSINSISALCEATGADVEEVATAIGMDQRIGNKFLKASVGFGGSCFQKDVLNLVYLCEALNLPEVARYWQQVIDMNDYQRRRFASRIIDSLFNTVTDKKIAILGFAFKKDTGDTRESSSIYISKYLMDEGAHLHIYDPKVPREQIVVDLSHPGVSEDDQVSRLVTISKDPYEACDGAHAVVICTEWDMFKELDYERIHKKMLKPAFIFDGRRVLDGLHNELQTIGFQIETIGKKV”: the “soluble on expression in E. coli” value is “soluble”.

For “MNMTIFIVFVICLSCVSLSLGTETCPPLTTIKPPDDIQKSLFYPSNWNDDLPTPNFAAGQKCSFKVIGPVVPQIRTVHAKSPPLALNAMSSTNPIVVKSDTHVSFLPIPQNYNYLDPILRSVQVYDGPTIDSTHLGTLYQAIASNNSLVSSGKYLTFYSLSWYYSVRNIVILQDYSDIQNYASYQAFTCHNSCGVSLDASKGTAAVLLFNSLSFVNQLSMSDNNSTLSVYTNSISDDNKLSDYSYSNSQTNIPQKFVGNYTIFVLDKGQANLSLKTYTPNNAWWSYVFYGQRGFFASPNFGTSDSDQNLCDAVSINGKHPAKITYTVDRSAIVGPAVLTVSIGGNITIYDVTNLPGPDPISAIGMSIAVNYESNGVISTGAFVSFEFQKSATSNGILFTIVLTICMAIFF”, the “soluble on expression in E. coli” value is listed as “not soluble”.

For the sequence “MEVEKEFITDEAKELLSKDKLIQQAYNEVKTSICSPIWPATSKTFTINNTEKNCNGVVPIKELCYTLLEDTYNWYREKPLDILKLEKKKGGPIDVYKEFIENSELKRVGMEFETGNISSAHRSMNKLLLGLKHGEIDLAIILMPIKQLAYYLTDRVTNFEELEPYFELTEGQPFIFIGFNAEAYNSNVPLIPKGSDGMSKRSIKKWKDKVENK”, the “soluble on expression in E. coli” value is given as “soluble”.

Take “EPPADGGQIKGVGSGRCLDVPDASTSDGTQLQLWDCHSGTNQQWAATDAGELRVYGDKCLDAAGTSNGSKVQIYSCWGGDNQKWRLNSDGSVVGVQSGLCLDAVGNGTANGTLIQLYTCSNGSNQRWTRT”: the “soluble on expression in E. coli” value is given as “soluble”.

Take “MGSDKIHHHHHHMIQTPVIVTFANQKGGVGKTTLCVTFANYLVAKGVRVLVIDCDFQHSIMKCRKADIKKYGEEQLPYEVWSYEPNNKVEMTSLVEKLHNDPEIDVVLIDSPGSLKAEGLVPIFVNSDIIVVPFHYDLVTIPSTASFLLFLDRLRQAVGERMKAQLFIIPNLNDNRVGKRSELILWDNTRETFSNYGYVTGKIPRRADMERFSTIAALDMQYRYVSSVFDKIYFSIFDKTGPIREMELSGIQLTENLYPKSGKKKYQAETSTHIALDEAEDEEQENNSEHQHNQ”: the “soluble on expression in E. coli” value was “not soluble”.

For “MGKPTGFMEYKRETPPKKDPFERSKNWQEFTLLMPESALRQQGARCMDCGVPFCQTGTSMDGSGEIGCPVYNLIPEWNDLVYRGHWKEALERLHKTNNFPEFTGRVCPAPCEGSCTVAISDDAVAIKSMEFHIVERGFQEGWIVPNPPRSRTGKKVAVVGSGPAGLAAAAQLNKAGHWVTVFEREDRIGGLLTYGIPDVKLPYHVVERRINLLKEEGIEFRTNVEIGKDVSAKQLKDDFDAVVLCTGATKPRDVNVKGRELKGIHFAMDFLTANTKSLLNSNHQDGNYISAKGKHVVVIGGGDTGADCITTSVRHGAKSITQFDINREKSNERPDNNPWPLFPIVHTVEDGHKEAAAVYGKDPRAYQVMTTKFVGDAEGHVKEIHTISVETTVHPDGSKTRVEIPGTEKVWPADLVFLAVGFTGPEEQLVRELELETDTRSNIKAEYGKYETSLEGVFAAGDNRRGQSLVVWAIHEGREAARECDKYLMGASNLPLEHHHHHH”, the “soluble on expression in E. coli” value is “soluble”.

Turning to “MAHHHHHHMKCVLVVHSGGERMQRSCDLPDGVSTQEQLRAFVRSQDLRLESLDFTFAASLVRLTAGAAEKKGEKVVLREDADVQQLLKTAKQQRATHVLTFEVTISMSSSSPRNLGSFLSAEYAVDKDLVTLHVFAPLACPSRGKNPSYQEKMFIIPTRCVLESLARAVEDTLSIKLTNSGMKLVLYTMPQQPNGDQVEILYDTSALELLRQHTSQSTPGSTHLRHPYANPENYV”, the “soluble on expression in E. coli” value is listed as “not soluble”.

For the sequence “MEKKITGYTTVDISQWHRKEHFEAFQSVAQCTYNQTVQLDITAFLKTVKKNKHKFYPAFIHILARLMNAHPEFRMAMKDGELVIWDSVHPCYTVFHEQTETFSSLWSEYHDDFRQFLHIYSQDVACYGENLAYFPKGFIENMFFVSANPWVSFTSFDLNVANMDNFFAPVFTMGKYYTQGDKVLMPLAIQVHHAVCDGFHVGRMLNELQQYCDEWQGGA”, the “soluble on expression in E. coli” value is reported as “soluble”.

Regarding “GSKATDSVLQGSEGNKVKRTSCMYGANCYRKNPVHFQHFSHPGDSDYGGVQIVGQDETDDRPECPYGPSCYRKNPQHKIEYRHNTLPVRNV”, the “soluble on expression in E. coli” value is recorded as “soluble”.

Take “ISNHPAPEYWCSIAYFEMDVQVGETFKVPSSCPIVTVDGYVDPSGGDRFCLGQLSNVHRTEAIERARLHIGKGVQLECKGEGDVWVRCLSDHAVFVQSYYLDREAGRAPGDAVHKIYPSAYIKVFDLRQCHRQMQQQAATAQAAAAAQAAAVAGNIPGPGSVGGIAPAISLSAAAGIGVDDLRRLCILRMSFVKGWGPDYPRQSIKETPCWIEIHLHRALQLLDEVLHTMPIADPQPLD”: the “soluble on expression in E. coli” value is recorded as “soluble”.

Regarding “MKKKADFLELFAVEKPIIGVIHLKGKTDQEIQERAKKEIQIYSEHGVDAILMENYYGDYVQLEKALQYVTSLDLPIPIGVNVLNVDPLGFHLANKYHLQFLQIDSVVGHVKPRDEASLQAFFDLYRAKTTAKLIGGVRFKYQPMLSEKSVEEDLKIAQQRCDAIAVTENATGEETSLEKIKLFRKQLPEFPLIVAAGLNDKSVKEQLAICDAAIVGSNFKDTRKDTGDIYAPYVDSFMKIVKELRGELEHHHHHH”, the “soluble on expression in E. coli” value was “soluble”.

For the sequence “MIALGIEGTAWSLSIGVVDEEGVIALENDPYIPKEGGIHPREASQHHSERLPSLLSRVFEKVDKNSIDVVAFSQGPGMGPCLRVVATAARLLAIKLEKPLVGVNHCLAHVEVGRWQTGARKPVSLYVSGGNSQVIARRGNRYRVFGETLDIGIGNALDKLARHMGLKHPGGPKIEELAKKGQKYHFLPYVVKGMDFSFSGMVTAAQRLFDSGVRMEDVAFSFQETAFAMLTEVTERALAYLDLNEVLLVGGVAANKRLQEMLRIMCEDRGAKFYVPPKELAGDNGAMIAYTGLLMYKHGHQTPVEKSYVRPDFRIEDVEVNWD”, the “soluble on expression in E. coli” value is given as “soluble”.

On to “ATTPSANQNWRLLRDESAQLRIADVLQRKEQFRPLAKRSFIFPASPQAVWLQVQLPAQKVPSWLWIFAPRVQYLDYYLVQDGQLVRDQHTGESRPFQERPLPSRSYLFSLPVDGKPMTLYVRMTSNHPLMAWFDQIDEAGLVGLE”, for which the “soluble on expression in E. coli” value is recorded as “soluble”.

On to “PTKLETFPLDVLVNTAAEDLPRGVDPSRKENHLSDEDFKAVFGMTRSAFANLPLWKQQNLKKEKGLF”, for which the “soluble on expression in E. coli” value was “soluble”.

For the sequence “MGSDKIHHHHHHAACEKDPDMDKLDNDYLVYTNYDKKADFKQFSTYYIPDSVLVIGDKKDPEYWKGEAAEAIINAYKENLNSKGFTYTDNKDAADLGIQVSYVQSTYYFTDYGQPEWWWNYPGYWDAPYWGNWGGWYYPYVVNYSITTNSFLTEIMNLKAPEGEKQKLPVLWSSFLSGPASYSGKVNQTLVVRAINQSFAQSPYLTNK”, the “soluble on expression in E. coli” value was “not soluble”.

For “TIDEINKAISSSLSRERIMETAMAQVERITGCEFVAILQAENGGLKVMSSHASGLEIPAALRPGAPLSLAGCTAWTAFRTGRSASIADLADTRKPGTVSRTLLAAGIRSLLAIPLMSRDQVKGVLLLGDTEPDKFARGETFTIEKIASQMAVALENARLYEDMR”, the “soluble on expression in E. coli” value is “not soluble”.

As for “MSLSRKYFGTDGIRGRVGEFPITPDFVLKLGWAVGMAFRRQGNCRVLIGKDTRSSGYMFESAFEAGLSASGADTLLLGPMPTPGIAYLTRTFHAEAGVVISASHNPHDDNGIKFFSGQGTKLPDDVELMIEELLDAPMTVVESARLGKVSRINDAAGRYIEFCKSSVPTSTDFNGLKVVLDCANGATYKIAPSVFRELGAEVTVLAASPNGLNINDKCGSTHLDGLQAAVVEHHADLGIAFDGDGDRVMMVDHTGAVVDGDELLFLIARDLQESGRLQGGVVGTLMSNLGLELALQELHIPFVRAKVGDRYVMAELLARNWMLGGENSGHIVCCQNTTTGDAIIAALQVLMALKHRGQTLAEARQGIRKCPQVLINVRFKGENDPLEHPSVKEASVRVTEQMGGRGRVLLRKSGTEPLVRVMVEGDEEASVRAHAEQLAKIVSEVCAEGHHHHHH”, the “soluble on expression in E. coli” value was “soluble”.

For “QTSIPTIFVGGDYARAFSTDGFVHRLTAAHLMTKGLVVHVSHAGHVTVQQFGPLKNNPTIQVIFADNHHAKRQARQFATVMQGLAKRYHVTRYNAVGHSSGGNIIFDYLTAQVPQRAQINKFVTIGSTYPGLTTQQLNRLPRSLPILNIAGHVWHTSGDGGVNLQAVLKFSHQLLAAGWSPKTQIIHGSPLTASHSMLHINPQVDLLIIQFLYGN”, the “soluble on expression in E. coli” value is “not soluble”.

As for “MFRPASIAVTAALCACALPALASETLNSRTDVLAALEAGYDVSVSTDLSRCTPEEGTPVSRTRGGRHIDAYRITEDGNVAFSGAHFTVANDGKPIQQFMRYQLRPDGSVRFTTYMYDLPGLQQRGPVLAYQCAFNEGARFHADLEHHHHHH”, the “soluble on expression in E. coli” value is reported as “soluble”.

As to “MGSDKIHHHHHHMARKPRIHYPGALYHVILRGNARQDIFHDPEDRYRFYLFLQEGAERFGHRILAFCLMTNHVHLAVQVGEVPLSRFMQNITFRYTRWQNWRMGKTGHLFQGRYKSFLVDGDAYLQELVAYIHLNPVRAGMTTKLGSYTWSSHRAYLGKEIIPWLNTETVLATYSSDTSTARKQYATFISDRVKEGHREEFHGKGSSDSRVIGDDHFVEAILERADRLPLRRPGLDMVVEVIKRLYRLDEEELASPGQKRWAAEARGVAAWAVQEFSSATLTDLAKRFGRDVSSMSAAVRRLEQRRKIDQGIAERLERVGRELEGAIFQA”, the “soluble on expression in E. coli” value is on record as “not soluble”.

Regarding “MGSDKIHHHHHHMNLKNTKAGFLLSAEHEKLPIAELNALIDIFSLEGNLNCFKNYVILDSSISEEIIKKMVKRGGYTNEGHVIFSESPIINQNVDETLENFFKSSETLDFPVERDETFAVRVLKLEKESPFNSMEIERKLGGIIKKKTSAQVSLKNPSKTVKVVISNDKMYTGIVIEKRDVEYFQNNRPHLRAYFHPGCIMPKLARCLVNLSRVKEGEIVLDPFCGTGGFLIEAGFLGCKLIGSDIDEQMVNGALLNLNTYDLSKQVISIKENDAKNVSKYLEALKIEKIDGIVTDPPYGISTSKKGDMLEIFEKIVDVLKDNDYLVFAAPNKMELDLNLVEFYEMRVHKSLTRYIHVYRKN”, the “soluble on expression in E. coli” value is reported as “not soluble”.

As for “MSININRQNMHKMLQYKRRCIMYINTGYLNHSHKDFKDKSRPLIVGSCGTYRLSQHPKMPTYRPRGRLDYQIIYISSGLVHFHFDNPENETIIPAGHIVLFRPKELQKYEFYGKDKTQIYWLHFTGSDVKNTLRKYGFTDNKRVFNVGTSLEYEQVFKRIITELQRCQDNYEEMLMLLLRHLLIIFNRKITTEHVIRNEFLDSQMDTAITYFNTNYNRSINVEEYASSIGMSISWFIRSFRKYTGNTPVQFLTALRMTNAQVLLETTSYSINEIAGIVGYNNPLYFSRLFHKQKGCSPSEYRARNT”, the “soluble on expression in E. coli” value is given as “not soluble”.

For the origin of these results see the DeepSol protein solubility set.
